{"source": "the supplement of paper PMC9112550", "about": "“Optimization of the antimicrobial peptide Bac7 by deep mutational scanning” (BMC Biology, 2022);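 further: peptides expressed intracellularly from a pBAD plasmid library in pooled LB shake-flask culture, induced with 0.3% L-arabinose, DNA abundance read by NGS, three biological replicates, DESeq2 with apeglm shrinkage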", "data": [{"system": "Escherichia coli TOP10", "test": "shrunken log2 fold change of peptide-encoding DNA abundance (4.5 h post-induction vs induction); higher = less antimicrobial activity (less host growth inhibition)", "settings": "time post-induction: 4.5 h; library: site-saturation at positions 5, 18, 19, 20", "values": [{"sequence": "RRIRLRPPRLPRPRPRPLSKPRP", "shrunken log2 fold change": 0.0272}, {"sequence": "RRIRNRPPRLPRPRPRPGNMPRP", "shrunken log2 fold change": -1.16}, {"sequence": "RRIRTRPPRLPRPRPRPLHPPRP", "shrunken log2 fold change": 0.375}, {"sequence": "RRIRDRPPRLPRPRPRPTIRPRP", "shrunken log2 fold change": 0.124}, {"sequence": "RRIRPRPPRLPRPRPRPFAAPRP", "shrunken log2 fold change": 0.227}, {"sequence": "RRIRFRPPRLPRPRPRPVHPPRP", "shrunken log2 fold change": 0.037}, {"sequence": "RRIRDRPPRLPRPRPRPDFCPRP", "shrunken log2 fold change": -0.0409}, {"sequence": "RRIRYRPPRLPRPRPRPSGDPRP", "shrunken log2 fold change": -0.514}, {"sequence": "RRIRVRPPRLPRPRPRPWGPPRP", "shrunken log2 fold change": -0.164}, {"sequence": "RRIRVRPPRLPRPRPRPRWSPRP", "shrunken log2 fold change": 0.209}, {"sequence": "RRIRTRPPRLPRPRPRPEWQPRP", "shrunken log2 fold change": 0.495}, {"sequence": "RRIRGRPPRLPRPRPRPAFTPRP", "shrunken log2 fold change": 0.436}, {"sequence": "RRIRLRPPRLPRPRPRPTHGPRP", "shrunken log2 fold change": 0.213}, {"sequence": "RRIRKRPPRLPRPRPRPRENPRP", "shrunken log2 fold change": 0.559}, {"sequence": "RRIRPRPPRLPRPRPRPIQVPRP", "shrunken log2 fold change": 0.0596}, {"sequence": "RRIRHRPPRLPRPRPRPPCRPRP", "shrunken log2 fold change": -0.0923}, {"sequence": "RRIRLRPPRLPRPRPRPQCQPRP", "shrunken log2 fold change": -0.399}, {"sequence": "RRIRVRPPRLPRPRPRPVGNPRP", "shrunken log2 fold change": -0.129}, {"sequence": "RRIRIRPPRLPRPRPRPPDQPRP", "shrunken log2 fold change": -0.0864}, {"sequence": "RRIRTRPPRLPRPRPRPGQCPRP", "shrunken log2 fold change": 0.013}, {"sequence": "RRIRKRPPRLPRPRPRPSRDPRP", "shrunken log2 fold change": 0.0856}, {"sequence": "RRIRTRPPRLPRPRPRPFFKPRP", "shrunken log2 fold change": -0.303}, {"sequence": "RRIRDRPPRLPRPRPRPQFWPRP", "shrunken log2 fold change": 0.345}, {"sequence": "RRIRERPPRLPRPRPRPVIPPRP", "shrunken log2 fold change": -0.23}, {"sequence": "RRIRVRPPRLPRPRPRPFAGPRP", "shrunken log2 fold change": 0.03}, {"sequence": "RRIRYRPPRLPRPRPRPLKYPRP", "shrunken log2 fold change": -0.352}, {"sequence": "RRIRRRPPRLPRPRPRPCFVPRP", "shrunken log2 fold change": 0.0292}, {"sequence": "RRIRMRPPRLPRPRPRPLIFPRP", "shrunken log2 fold change": -0.139}, {"sequence": "RRIRFRPPRLPRPRPRPHSMPRP", "shrunken log2 fold change": -0.328}, {"sequence": "RRIRERPPRLPRPRPRPTIQPRP", "shrunken log2 fold change": -0.0576}, {"sequence": "RRIRSRPPRLPRPRPRPHPHPRP", "shrunken log2 fold change": -0.168}, {"sequence": "RRIRSRPPRLPRPRPRPKLEPRP", "shrunken log2 fold change": 0.165}, {"sequence": "RRIRKRPPRLPRPRPRPMDNPRP", "shrunken log2 fold change": 0.103}, {"sequence": "RRIRGRPPRLPRPRPRPWHCPRP", "shrunken log2 fold change": -0.0173}, {"sequence": "RRIRYRPPRLPRPRPRPCSCPRP", "shrunken log2 fold change": -0.155}, {"sequence": "RRIRSRPPRLPRPRPRPTPAPRP", "shrunken log2 fold change": 0.299}, {"sequence": "RRIRYRPPRLPRPRPRPFLFPRP", "shrunken log2 fold change": -0.704}, {"sequence": "RRIRCRPPRLPRPRPRPREIPRP", "shrunken log2 fold change": 0.218}, {"sequence": "RRIRSRPPRLPRPRPRPCECPRP", "shrunken log2 fold change": -0.0304}, {"sequence": "RRIRCRPPRLPRPRPRPGYTPRP", "shrunken log2 fold change": 0.00337}, {"sequence": "RRIRWRPPRLPRPRPRPFKVPRP", "shrunken log2 fold change": 0.00438}, {"sequence": "RRIRWRPPRLPRPRPRPYWRPRP", "shrunken log2 fold change": 0.00194}, {"sequence": "RRIRIRPPRLPRPRPRPLHHPRP", "shrunken log2 fold change": -0.148}, {"sequence": "RRIRRRPPRLPRPRPRPTSTPRP", "shrunken log2 fold change": 0.158}, {"sequence": "RRIRCRPPRLPRPRPRPMFFPRP", "shrunken log2 fold change": -0.399}, {"sequence": "RRIRTRPPRLPRPRPRPRYFPRP", "shrunken log2 fold change": -0.429}, {"sequence": "RRIRTRPPRLPRPRPRPWYDPRP", "shrunken log2 fold change": 0.0754}, {"sequence": "RRIRCRPPRLPRPRPRPVMMPRP", "shrunken log2 fold change": -0.214}, {"sequence": "RRIRLRPPRLPRPRPRPPWNPRP", "shrunken log2 fold change": 0.939}, {"sequence": "RRIRSRPPRLPRPRPRPSVTPRP", "shrunken log2 fold change": -0.171}, {"sequence": "RRIRVRPPRLPRPRPRPPEIPRP", "shrunken log2 fold change": -0.0437}, {"sequence": "RRIRCRPPRLPRPRPRPEDEPRP", "shrunken log2 fold change": 0.076}, {"sequence": "RRIRLRPPRLPRPRPRPYGVPRP", "shrunken log2 fold change": -0.107}, {"sequence": "RRIRNRPPRLPRPRPRPIPLPRP", "shrunken log2 fold change": 0.0142}, {"sequence": "RRIRGRPPRLPRPRPRPCIRPRP", "shrunken log2 fold change": 0.174}, {"sequence": "RRIRIRPPRLPRPRPRPIKPPRP", "shrunken log2 fold change": -0.254}, {"sequence": "RRIRHRPPRLPRPRPRPLRLPRP", "shrunken log2 fold change": 0.199}, {"sequence": "RRIRARPPRLPRPRPRPSKGPRP", "shrunken log2 fold change": -0.133}, {"sequence": "RRIRPRPPRLPRPRPRPMSKPRP", "shrunken log2 fold change": -0.276}, {"sequence": "RRIRNRPPRLPRPRPRPREDPRP", "shrunken log2 fold change": 0.102}]}]}
